Test results reported in paper PMC11742319, “Phosphorylation regulates the chromatin remodeler SMARCAD1 in nucleosome binding, ATP hydrolysis, and histone exchange”.

Key:
[1] = target: nucleosome: histone octamer with Alexa Fluor 488 on histone H4 E63C assembled onto a 165 bp DNA (human) (UniProt P04908)
[2] = target: (H3-H4)2 tetramer (fluorescently labeled with Alexa Fluor 488 on H4 at E63C) (human) (UniProt P68431); assay: fluorescence polarisation; 5 nM Alexa Fluor 488-labeled H2A-H2B dimer or (H3-H4)2 tetramer, SMARCAD1 titrated 0-2500 nM; 2 mM DTT, 10% glycerol, 50 mM HEPES pH 7.5, 0.01% CHAPS, 0.01% NP-40, 300 mM KCl; room temperature, 30 min; hyperbolic fit
[3] = target: nucleosome: histone octamer with Alexa Fluor 488 on histone H4 E63C assembled onto a 165 bp DNA (human) (UniProt P04908); assay: fluorescence polarisation; 10 nM Alexa Fluor 488-labeled nucleosome (165 bp DNA), SMARCAD1 titrated 0-5 μM; 2 mM DTT, 10% glycerol, 50 mM HEPES pH 7.5, 0.01% CHAPS, 0.01% NP-40; room temperature, 30 min; hyperbolic fit
[4] = target: T1, 23A SMARCAD1, phosphorylated (human) (UniProt Q9H4L7); assay: fluorescence polarization; conditions: FP: 50 mM HEPES pH 7.5, 2 mM DTT, 10% glycerol, 0.01% CHAPS, 0.01% NP-40, no added salt stated, room temperature 30 min, 10 nM nucleosome or DNA, 0-5 uM …
T1 sequence: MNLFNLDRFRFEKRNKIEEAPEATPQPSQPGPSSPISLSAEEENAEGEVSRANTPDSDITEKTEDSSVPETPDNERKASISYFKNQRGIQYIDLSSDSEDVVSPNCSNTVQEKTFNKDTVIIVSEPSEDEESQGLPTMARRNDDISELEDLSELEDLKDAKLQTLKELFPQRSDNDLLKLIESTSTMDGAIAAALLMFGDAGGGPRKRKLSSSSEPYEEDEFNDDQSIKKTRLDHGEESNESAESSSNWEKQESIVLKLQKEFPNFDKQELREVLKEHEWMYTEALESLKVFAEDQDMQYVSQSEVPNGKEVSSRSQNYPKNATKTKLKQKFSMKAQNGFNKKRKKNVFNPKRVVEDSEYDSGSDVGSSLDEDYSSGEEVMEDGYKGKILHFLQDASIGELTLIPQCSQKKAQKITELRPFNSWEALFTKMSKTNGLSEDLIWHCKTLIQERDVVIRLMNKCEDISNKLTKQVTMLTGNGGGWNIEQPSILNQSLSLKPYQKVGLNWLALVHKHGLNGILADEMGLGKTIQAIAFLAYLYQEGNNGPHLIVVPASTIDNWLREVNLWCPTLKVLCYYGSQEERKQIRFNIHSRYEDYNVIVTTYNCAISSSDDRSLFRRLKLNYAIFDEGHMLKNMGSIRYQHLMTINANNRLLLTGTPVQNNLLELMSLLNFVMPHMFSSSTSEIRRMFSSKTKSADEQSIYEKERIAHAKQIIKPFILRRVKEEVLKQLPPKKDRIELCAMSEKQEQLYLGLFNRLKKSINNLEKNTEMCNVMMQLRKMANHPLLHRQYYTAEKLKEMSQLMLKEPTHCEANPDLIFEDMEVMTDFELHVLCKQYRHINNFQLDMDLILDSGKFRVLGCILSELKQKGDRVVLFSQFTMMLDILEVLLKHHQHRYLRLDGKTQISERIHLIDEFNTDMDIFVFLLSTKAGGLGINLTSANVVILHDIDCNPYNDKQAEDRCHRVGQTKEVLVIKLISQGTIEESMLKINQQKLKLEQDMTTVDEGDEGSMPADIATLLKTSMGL

[5] = target: T2, 23A SMARCAD1, dephosphorylated (human) (UniProt Q9H4L7); assay: fluorescence polarization; conditions: FP: 50 mM HEPES pH 7.5, 2 mM DTT, 10% glycerol, 0.01% CHAPS, 0.01% NP-40, no added salt stated, room temperature 30 min, 10 nM nucleosome or DNA, 0-5 uM …
T2 sequence: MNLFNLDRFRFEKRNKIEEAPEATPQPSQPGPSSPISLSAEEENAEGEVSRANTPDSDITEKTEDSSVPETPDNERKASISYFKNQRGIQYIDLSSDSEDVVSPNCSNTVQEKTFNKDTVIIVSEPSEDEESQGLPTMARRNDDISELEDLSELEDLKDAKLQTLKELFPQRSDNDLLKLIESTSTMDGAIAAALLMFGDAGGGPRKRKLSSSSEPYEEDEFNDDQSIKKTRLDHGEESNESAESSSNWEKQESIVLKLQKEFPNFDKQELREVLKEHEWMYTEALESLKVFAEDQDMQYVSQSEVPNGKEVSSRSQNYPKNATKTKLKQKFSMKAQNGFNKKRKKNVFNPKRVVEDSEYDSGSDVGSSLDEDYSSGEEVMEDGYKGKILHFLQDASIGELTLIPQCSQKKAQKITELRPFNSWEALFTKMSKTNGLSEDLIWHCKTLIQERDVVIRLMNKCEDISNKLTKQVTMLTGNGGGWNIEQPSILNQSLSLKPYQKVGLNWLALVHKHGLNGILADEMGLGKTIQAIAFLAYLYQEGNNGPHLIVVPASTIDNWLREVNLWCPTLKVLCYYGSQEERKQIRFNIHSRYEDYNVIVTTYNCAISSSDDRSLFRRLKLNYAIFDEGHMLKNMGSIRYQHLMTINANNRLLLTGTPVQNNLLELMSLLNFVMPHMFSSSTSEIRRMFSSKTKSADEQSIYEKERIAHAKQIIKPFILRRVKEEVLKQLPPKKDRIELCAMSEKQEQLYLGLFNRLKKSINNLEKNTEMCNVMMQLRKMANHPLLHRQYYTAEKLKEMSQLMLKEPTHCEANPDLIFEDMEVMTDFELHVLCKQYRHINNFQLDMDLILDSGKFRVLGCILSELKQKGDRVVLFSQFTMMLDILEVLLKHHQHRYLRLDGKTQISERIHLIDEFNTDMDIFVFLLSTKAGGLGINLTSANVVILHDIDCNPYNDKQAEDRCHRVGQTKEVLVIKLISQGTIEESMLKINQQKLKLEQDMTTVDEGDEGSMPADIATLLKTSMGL

[6] = target: T3, Δ350 SMARCAD1, dephosphorylated V974A;del1-350 (human) (UniProt Q9H4L7); assay: fluorescence polarization; conditions: FP: 50 mM HEPES pH 7.5, 2 mM DTT, 10% glycerol, 0.01% CHAPS, 0.01% NP-40, no added salt stated, room temperature 30 min; 10 nM nucleosome or DNA, 0-5 uM …
T3 sequence: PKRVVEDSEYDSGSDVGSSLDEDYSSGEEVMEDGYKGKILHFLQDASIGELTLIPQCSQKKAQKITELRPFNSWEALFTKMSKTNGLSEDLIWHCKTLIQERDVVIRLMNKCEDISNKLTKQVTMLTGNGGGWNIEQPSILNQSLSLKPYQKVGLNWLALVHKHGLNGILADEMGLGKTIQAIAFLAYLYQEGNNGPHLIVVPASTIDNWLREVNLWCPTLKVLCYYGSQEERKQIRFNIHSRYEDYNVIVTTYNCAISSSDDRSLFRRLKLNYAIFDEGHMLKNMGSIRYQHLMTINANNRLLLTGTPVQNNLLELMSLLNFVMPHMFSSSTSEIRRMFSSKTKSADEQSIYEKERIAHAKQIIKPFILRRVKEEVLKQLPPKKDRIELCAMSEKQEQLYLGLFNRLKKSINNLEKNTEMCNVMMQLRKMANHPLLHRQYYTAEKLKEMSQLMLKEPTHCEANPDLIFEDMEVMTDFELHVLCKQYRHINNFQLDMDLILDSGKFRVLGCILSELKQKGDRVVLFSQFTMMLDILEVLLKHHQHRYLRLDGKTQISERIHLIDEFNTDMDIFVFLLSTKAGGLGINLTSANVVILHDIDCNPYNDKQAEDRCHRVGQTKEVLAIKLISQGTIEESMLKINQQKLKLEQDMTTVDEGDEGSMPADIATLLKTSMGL

[7] = target: T4, Δ350 SMARCAD1, dephosphorylated (human, UniProt Q9H4L7 351-1026, V974A;del1-350); assay: fluorescence polarization; dephosphorylated (CIP); FP: 50 mM HEPES pH 7.5, 2 mM DTT, 10% glycerol, 0.01% CHAPS, 0.01% NP-40, no added salt stated, room temperature 30 min; 10 nM nucleosome or DNA, 0-5 uM SMARCAD1; conditions: protein: recombinant; tags: 6xHis; label: Alexa Fluor 488 and Alexa Fluor 647 (labeled PCR primers); blunt
T4 sequence: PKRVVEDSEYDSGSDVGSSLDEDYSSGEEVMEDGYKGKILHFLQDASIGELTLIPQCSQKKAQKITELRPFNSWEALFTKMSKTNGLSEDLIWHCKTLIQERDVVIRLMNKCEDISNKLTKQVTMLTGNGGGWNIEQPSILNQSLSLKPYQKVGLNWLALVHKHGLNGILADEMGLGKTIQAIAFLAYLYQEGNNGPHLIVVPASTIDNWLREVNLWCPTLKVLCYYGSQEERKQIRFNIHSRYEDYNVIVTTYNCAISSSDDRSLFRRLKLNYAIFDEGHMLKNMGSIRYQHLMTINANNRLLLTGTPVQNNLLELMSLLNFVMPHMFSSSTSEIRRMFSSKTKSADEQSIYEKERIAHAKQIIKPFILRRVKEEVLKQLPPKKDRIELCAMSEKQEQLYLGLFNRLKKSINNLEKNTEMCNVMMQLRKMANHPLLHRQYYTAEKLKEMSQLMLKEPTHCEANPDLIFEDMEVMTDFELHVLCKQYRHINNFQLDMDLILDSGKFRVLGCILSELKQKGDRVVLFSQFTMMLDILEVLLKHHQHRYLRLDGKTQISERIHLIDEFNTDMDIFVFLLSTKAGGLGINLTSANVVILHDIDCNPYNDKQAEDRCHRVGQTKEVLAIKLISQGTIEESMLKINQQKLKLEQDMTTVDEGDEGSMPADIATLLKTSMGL

[8] = target: T5, WT SMARCAD1, dephosphorylated (human, UniProt Q9H4L7 1-1026, V974A); assay: as above; conditions: protein: recombinant; tags: 6xHis (C- or N-terminal); label: Alexa Fluor 488 and Alexa Fluor 647 (labeled PCR primers); blunt
T5 sequence: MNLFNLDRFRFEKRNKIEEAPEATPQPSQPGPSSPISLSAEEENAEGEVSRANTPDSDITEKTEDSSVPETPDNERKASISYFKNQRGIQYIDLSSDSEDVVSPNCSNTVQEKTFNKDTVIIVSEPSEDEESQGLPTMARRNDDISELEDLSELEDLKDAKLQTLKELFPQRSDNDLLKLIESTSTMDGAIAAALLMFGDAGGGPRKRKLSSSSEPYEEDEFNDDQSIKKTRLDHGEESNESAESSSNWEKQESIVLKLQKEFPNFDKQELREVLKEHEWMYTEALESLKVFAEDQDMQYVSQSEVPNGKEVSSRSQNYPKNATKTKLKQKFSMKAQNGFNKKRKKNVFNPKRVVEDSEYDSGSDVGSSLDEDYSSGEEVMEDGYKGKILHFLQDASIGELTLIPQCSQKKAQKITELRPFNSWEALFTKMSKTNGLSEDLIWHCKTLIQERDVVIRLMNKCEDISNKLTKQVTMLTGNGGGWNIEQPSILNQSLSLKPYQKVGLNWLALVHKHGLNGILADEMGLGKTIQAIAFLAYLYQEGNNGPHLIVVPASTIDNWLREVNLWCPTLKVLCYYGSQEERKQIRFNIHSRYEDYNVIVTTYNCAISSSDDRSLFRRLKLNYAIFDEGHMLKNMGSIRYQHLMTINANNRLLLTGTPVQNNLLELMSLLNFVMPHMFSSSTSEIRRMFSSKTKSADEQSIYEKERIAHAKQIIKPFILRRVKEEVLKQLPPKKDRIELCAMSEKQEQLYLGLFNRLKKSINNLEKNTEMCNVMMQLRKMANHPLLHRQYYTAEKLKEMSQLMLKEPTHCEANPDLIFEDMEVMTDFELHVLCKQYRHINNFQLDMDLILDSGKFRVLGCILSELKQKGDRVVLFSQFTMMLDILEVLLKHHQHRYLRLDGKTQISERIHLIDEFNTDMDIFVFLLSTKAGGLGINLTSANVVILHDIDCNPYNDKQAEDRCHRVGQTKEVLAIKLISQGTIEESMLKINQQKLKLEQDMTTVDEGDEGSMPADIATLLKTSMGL

phosphorylated wild type SMARCAD1 (from UniProt Q9H4L7 1-1026) (enzyme)
ATP hydrolysis rate with nucleosome as activator (1 μM SMARCAD1, 1 μM nucleosome; NADH-coupled assay) [1]: 30 nM/s | Kd [2]: 151 nM

dephosphorylated Δ350 SMARCAD1 (from UniProt Q9H4L7 351-1026) (domain or fragment)
Kd [3]: 114 nM

phosphorylated Δ350 SMARCAD1 (from UniProt Q9H4L7 351-1026) (domain or fragment)
ATP hydrolysis rate with nucleosome as activator (1 μM SMARCAD1, 1 μM nucleosome; NADH-coupled assay) [1]: 118 nM/s | Kd [2]: 495 nM

CGAGCCAGGCCTGAGAATCCGGTGCCGAGGCCGCTCAATTGGTCGTAGACAGCTCTAGCACCGCTTAAACGCACGTACGCGCTGTCCCCCGCGTTTTAACCGCCAAGGGGATTACTCCCTAGTCTCCAGGCACGTGTCAGATATATACATCCAGGCCTTGTGTCG (double strand) [165 bp 601 nucleosome (7N11)]
Kd ([4]; phosphorylated): 213 nM | Kd ([5]; dephosphorylated (CIP)): 71 nM | Kd [6]: 114 nM

CGAGCCAGGCCTGAGAATCCGGTGCCGAGGCCGCTCAATTGGTCGTAGACAGCTCTAGCACCGCTTAAACGCACGTACGCGCTGTCCCCCGCGTTTTAACCGCCAAGGGGATTACTCCCTAGTCTCCAGGCACGTGTCAGATATATACATCCAGGCCTTGTGTCG (double strand) [165 bp 601 DNA]
Kd [4]: 49 nM | Kd [5]: 28 nM

B1: 165 bp 601 DNA (dsDNA)
DNA 1: CGAGCCAGGCCTGAGAATCCGGTGCCGAGGCCGCTCAATTGGTCGTAGACAGCTCTAGCACCGCTTAAACGCACGTACGCGCTGTCCCCCGCGTTTTAACCGCCAAGGGGATTACTCCCTAGTCTCCAGGCACGTGTCAGATATATACATCCAGGCCTTGTGTCG
DNA 2: CGACACAAGGCCTGGATGTATATATCTGACACGTGCCTGGAGACTAGGGAGTAATCCCCTTGGCGGTTAAAACGCGGGGGACAGCGCGTACGTGCGTTTAAGCGGTGCTAGAGCTGTCTACGACCAATTGAGCGGCCTCGGCACCGGATTCTCAGGCCTGGCTCG
Kd [7]: 60 ± 18 nM | Kd [8]: 26 ± 9 nM
